One experiment has as its target T1, programmed cell death 1 (human, UniProt Q15116 25-288, limits assumed).
T1 construct: also called PDCD1

Experiment [1] has as its target T2, HAUS augmin like complex subunit 1, transcript variant 1 (human, UniProt Q96CS2 1-278).
T2 construct: also called HAUS1
T2 sequence: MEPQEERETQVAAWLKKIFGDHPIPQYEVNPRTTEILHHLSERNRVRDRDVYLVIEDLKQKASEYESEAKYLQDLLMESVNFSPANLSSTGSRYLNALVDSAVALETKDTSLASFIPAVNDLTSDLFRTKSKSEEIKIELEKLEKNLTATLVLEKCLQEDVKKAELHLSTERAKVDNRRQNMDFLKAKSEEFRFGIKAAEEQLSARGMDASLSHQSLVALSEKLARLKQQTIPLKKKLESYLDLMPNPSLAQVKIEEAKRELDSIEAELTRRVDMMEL

The target of experiment [2] is T3, glyoxylate and hydroxypyruvate reductase (human, UniProt Q9UBQ7 1-328).
T3 construct: also called GRHPR
T3 sequence: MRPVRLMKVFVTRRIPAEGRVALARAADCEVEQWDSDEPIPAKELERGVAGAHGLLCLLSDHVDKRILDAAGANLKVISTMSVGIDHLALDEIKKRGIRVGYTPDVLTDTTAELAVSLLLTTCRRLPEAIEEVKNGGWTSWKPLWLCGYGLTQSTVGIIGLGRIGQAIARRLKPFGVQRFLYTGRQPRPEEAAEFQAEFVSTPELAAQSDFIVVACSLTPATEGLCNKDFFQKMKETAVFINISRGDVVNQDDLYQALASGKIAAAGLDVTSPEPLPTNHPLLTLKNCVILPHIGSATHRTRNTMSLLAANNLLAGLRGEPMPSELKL

Experiment [3] addresses T4, Transforming growth factor beta 3 (human, UniProt P10600 24-412).
T4 construct: also called TGFB3
T4 sequence: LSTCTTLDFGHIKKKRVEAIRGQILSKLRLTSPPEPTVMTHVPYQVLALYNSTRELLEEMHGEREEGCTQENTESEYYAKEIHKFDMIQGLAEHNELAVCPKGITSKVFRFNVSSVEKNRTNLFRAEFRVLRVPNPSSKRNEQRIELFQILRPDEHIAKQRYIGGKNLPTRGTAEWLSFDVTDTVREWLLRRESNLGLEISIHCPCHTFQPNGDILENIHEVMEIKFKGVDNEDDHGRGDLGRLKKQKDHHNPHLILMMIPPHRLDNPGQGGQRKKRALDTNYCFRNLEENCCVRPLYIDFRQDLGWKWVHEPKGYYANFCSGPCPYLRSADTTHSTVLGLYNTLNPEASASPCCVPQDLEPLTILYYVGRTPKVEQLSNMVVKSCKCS

The target of a further experiment is T5, chymotrypsinogen B2 (human, UniProt Q6GPI1 19-263, limits assumed).
T5 construct: also called CTRB2

Experiment [4] addresses T6, NFKB inhibitor beta, transcript variant 1 (human, UniProt Q15653 1-356).
T6 construct: also called NFKBIB
T6 sequence: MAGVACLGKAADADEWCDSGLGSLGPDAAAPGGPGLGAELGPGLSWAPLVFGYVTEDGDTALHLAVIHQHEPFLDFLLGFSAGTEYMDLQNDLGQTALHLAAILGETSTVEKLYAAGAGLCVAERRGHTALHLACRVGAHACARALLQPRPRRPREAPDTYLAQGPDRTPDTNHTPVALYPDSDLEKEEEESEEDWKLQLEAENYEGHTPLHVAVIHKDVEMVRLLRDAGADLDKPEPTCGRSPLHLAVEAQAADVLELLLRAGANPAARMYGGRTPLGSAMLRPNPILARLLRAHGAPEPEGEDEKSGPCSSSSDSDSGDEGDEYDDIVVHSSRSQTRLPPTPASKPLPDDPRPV

In experiment [5] the target is T7, cyclin dependent kinase 2 associated protein 2, transcript variant 1 (human, UniProt O75956 1-126).
T7 construct: also called CDK2AP2
T7 sequence: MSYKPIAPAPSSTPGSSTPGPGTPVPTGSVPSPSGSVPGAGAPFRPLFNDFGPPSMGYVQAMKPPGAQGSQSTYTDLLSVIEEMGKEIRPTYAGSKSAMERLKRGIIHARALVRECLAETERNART

Experiment [6] concerns the target T8, acyl-CoA binding domain containing 6 (human, UniProt Q9BR61 1-282).
T8 construct: also called ACBD6
T8 sequence: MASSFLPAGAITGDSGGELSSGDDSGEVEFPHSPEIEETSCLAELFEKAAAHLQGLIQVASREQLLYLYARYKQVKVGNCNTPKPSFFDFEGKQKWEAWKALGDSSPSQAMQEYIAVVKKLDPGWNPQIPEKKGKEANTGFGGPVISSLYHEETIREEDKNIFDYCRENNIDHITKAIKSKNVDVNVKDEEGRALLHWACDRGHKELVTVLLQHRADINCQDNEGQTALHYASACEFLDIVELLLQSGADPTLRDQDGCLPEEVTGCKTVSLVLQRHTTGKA

In experiment [7] the target is T9, phosphoglucomutase 2 like 1 (human, UniProt Q6PCE3 1-622 at identity 1.00), limits assumed).
T9 construct: also called PGM2L1
T9 sequence: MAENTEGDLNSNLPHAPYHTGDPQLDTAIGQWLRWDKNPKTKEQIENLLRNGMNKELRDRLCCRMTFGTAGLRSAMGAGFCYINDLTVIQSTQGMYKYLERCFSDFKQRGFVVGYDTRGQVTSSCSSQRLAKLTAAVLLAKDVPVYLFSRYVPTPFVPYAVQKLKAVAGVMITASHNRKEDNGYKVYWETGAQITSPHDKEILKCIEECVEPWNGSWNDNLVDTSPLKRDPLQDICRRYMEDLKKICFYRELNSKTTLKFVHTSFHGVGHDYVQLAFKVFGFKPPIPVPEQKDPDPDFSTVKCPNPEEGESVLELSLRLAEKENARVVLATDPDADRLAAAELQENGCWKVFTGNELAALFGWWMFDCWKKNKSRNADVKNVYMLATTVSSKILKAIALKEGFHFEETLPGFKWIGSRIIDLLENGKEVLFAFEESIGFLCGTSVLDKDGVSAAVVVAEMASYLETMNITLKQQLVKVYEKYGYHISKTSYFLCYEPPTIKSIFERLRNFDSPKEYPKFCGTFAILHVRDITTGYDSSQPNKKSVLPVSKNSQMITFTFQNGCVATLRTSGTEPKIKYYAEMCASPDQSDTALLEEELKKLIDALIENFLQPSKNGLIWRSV

Experiment [8] addresses T10, transforming growth factor beta induced (human, UniProt Q15582 24-683, limits assumed).
T10 construct: also called TGFBI
T10 sequence: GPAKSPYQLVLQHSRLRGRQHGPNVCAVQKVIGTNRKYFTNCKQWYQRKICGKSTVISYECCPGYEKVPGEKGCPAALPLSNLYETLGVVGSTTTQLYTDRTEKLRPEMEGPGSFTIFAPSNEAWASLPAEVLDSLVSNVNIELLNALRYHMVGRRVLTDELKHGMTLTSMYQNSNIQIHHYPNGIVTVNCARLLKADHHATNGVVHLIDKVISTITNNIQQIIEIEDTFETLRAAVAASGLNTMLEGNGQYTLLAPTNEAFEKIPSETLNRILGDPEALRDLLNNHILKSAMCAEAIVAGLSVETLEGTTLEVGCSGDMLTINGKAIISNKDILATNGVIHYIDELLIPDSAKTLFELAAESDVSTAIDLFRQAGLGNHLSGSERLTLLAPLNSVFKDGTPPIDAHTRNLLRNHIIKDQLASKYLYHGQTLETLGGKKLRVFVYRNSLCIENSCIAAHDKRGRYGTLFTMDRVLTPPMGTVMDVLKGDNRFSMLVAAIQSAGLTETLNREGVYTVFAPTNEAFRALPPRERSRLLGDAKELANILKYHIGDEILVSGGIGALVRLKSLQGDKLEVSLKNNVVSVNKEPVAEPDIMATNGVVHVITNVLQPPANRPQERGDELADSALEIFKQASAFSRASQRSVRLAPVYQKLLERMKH

The target of experiment [9] is BCL2 apoptosis regulator, transcript variant alpha (human, UniProt P10415 1-239).
Sequence of BCL2 apoptosis regulator, transcript variant alpha (P10415 whole entry, change not shown): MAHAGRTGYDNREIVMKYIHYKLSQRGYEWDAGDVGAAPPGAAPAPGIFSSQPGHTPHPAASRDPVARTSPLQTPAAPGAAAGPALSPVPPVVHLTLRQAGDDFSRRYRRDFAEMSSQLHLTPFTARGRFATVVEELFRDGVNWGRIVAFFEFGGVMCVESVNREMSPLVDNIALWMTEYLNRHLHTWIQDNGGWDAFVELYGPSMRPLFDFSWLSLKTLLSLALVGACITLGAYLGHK

T5 sequence (Q6GPI1 19-263 limits assumed): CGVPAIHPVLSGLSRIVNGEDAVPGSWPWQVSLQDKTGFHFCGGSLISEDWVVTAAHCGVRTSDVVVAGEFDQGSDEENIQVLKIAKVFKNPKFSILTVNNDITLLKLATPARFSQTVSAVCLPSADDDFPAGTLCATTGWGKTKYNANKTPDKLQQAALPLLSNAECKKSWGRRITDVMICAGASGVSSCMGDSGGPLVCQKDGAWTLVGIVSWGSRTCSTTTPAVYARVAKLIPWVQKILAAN
T1 sequence (Q15116 25-288 limits assumed): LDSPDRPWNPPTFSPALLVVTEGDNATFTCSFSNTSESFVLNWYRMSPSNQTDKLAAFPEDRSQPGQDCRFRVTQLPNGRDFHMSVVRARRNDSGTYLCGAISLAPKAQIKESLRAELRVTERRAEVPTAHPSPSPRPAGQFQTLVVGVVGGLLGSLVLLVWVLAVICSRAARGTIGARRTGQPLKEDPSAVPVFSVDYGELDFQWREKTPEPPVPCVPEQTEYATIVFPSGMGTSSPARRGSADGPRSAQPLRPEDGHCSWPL

B1: TTES1003 (antibody, V domains shown)
VH: VVQLVESGGGLVQPGGSLRLSCSASGFTFSSYAMHWVRQAPGKGLEYVSAISSNGGSTYYADSVKGRFTISRDNSKNTLYLQMSSLRAEDTAVYYCVKSPVAANDAFDIWGQGTMVTVSS
VL: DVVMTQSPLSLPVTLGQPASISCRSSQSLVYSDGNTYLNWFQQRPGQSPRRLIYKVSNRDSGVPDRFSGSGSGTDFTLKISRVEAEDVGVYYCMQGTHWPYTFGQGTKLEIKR
For B1, in the experiment with programmed cell death 1, the binding result is listed as “binds”.

B2: TSTO1002 (antibody, V domains shown)
VH: EVQLVESGGGLVKPGGSLRLSCAASGFTFSNAWMNWVRQTPGKGLEWVGRIKTKTDGGTTDYAEPVKGRFTISRDDSKNTLYLQMNSLKTEDTAVYYCTRGAVADYWGQGTQVTVSS
VL: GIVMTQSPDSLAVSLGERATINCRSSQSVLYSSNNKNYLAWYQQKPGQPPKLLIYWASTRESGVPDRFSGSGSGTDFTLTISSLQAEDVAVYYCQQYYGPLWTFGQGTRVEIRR
With B2, the binding result in experiment [1] is given as “binds”.

B3: TTES1004 (antibody, V domains shown)
VH: EVQLVESGGGLVQPGGSLRLSCVASGFTFSSYSMNWVRQAPGKGLKWVSYISSSRSTIYNADSVKGRFTISRDNAKKSLYLQMNSLRAEDTAVYYCARVSVAAPTCLDYWGQGTLVTVSS
VL: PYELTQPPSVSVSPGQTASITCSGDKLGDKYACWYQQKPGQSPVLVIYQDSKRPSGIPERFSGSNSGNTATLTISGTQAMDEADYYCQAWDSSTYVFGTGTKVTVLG
For B3, in experiment [2], the binding result is reported as “binds”.

B4: TSTO1003 (antibody, V domains shown)
VH: QVQLKQSGGGVVQPGRSLTLSCVASGLTFSDYGMHWVRQAPGKGLEWVAVIWHDGSKTNYADSVKGRIIISRDNSKSTVYLQMNRLRGEDTAVYYCATSHGGLVPGGENYWGQGTLVTVSS
VL: SDELTQPPSVSVSPGQTARITCSGDALAKEYAYWYQQKSGQAPVLVISKDTERPSGIPARFSGSSSGTTVTLTISGVQSDDEADYYCQSADSSLTYWLFGGGTKLTVLR
For B4, in [3], the binding result is recorded as “binds”.

B5: TSTO1004 (antibody, V domains shown)
VH: QVQLVQSGSELKKPGASVKVSCTSSGYVFTSFGVSWVRQVPGQGPEWMGWISPYTRQTKYAQSLQGRITLTADTSTNTTYMELRSLRSDDTAMYYCVREEFGVVRGPNPFDVWGQGTMVTVSS
VL: DIQMTQAPSTLSASVGDRVSITCRASQNIRDFLAWYQQKPGRAPDLLIYRASTLEKGVSARFSGSGSGTEFTLTITGLQPDDFATYYCQQYSDYSTFGGGTRVEIK
Regarding B5, the binding result in the experiment with chymotrypsinogen B2 was “binds”.

B6: TSTO1005 (antibody, V domains shown)
VH: EVQLVESGGGVVQPGGSLRLSCAASGFTFEDFGMHWVRQAPGKGLEWVAFTRFDGSEKYYVDSVKGRFTVSRDNSKNTLFLHMNSLRPEDTAVYYCAKTRSYSSADTTRPNAPGYWGQGTLVTVSS
VL: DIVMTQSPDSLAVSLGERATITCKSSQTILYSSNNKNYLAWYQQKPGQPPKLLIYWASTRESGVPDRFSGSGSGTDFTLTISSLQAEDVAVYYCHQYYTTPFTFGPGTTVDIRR
As for B6, the binding result in experiment [4] and in [5] was “binds” throughout.

B7: TTES1006 (antibody, V domains shown)
VH: EVQLVESGGGLVQPGGSLRLSCAASGFTFSKFWMHWVRQAPGKGLVWLSRINTDGTVTTYADSVKGRFTISRDNAKSTLYLQMNSLRVEDTAVYYCAGGGSQVDFWGQGTLVTVSS
VL: PYELTQPPSVSVSPGQTASIACSGDNLGNKYAWWYRQKPGQSPVLVMYKDNKRPSGIPERFSGSNSGNTATLTISGTQAMDEADYYCQTWDSSTVIFGGGTKLTVQ
With B7, the binding result in experiment [6] is “binds”.

B8: TTES1002 (antibody, V domains shown)
VH: QVQLQESGPGLVKPSETLSLICTVSGASVNSGTHFWSWIRQPPGKGLEWIGYVYYSGNTNYNPSLKSRVAISVDTSKNQFSLKLTSVTSADTAVYYCARDFDDGYDIRYWGQGTRVSVSS
VL: QSALTQPASVSGSPGQSITISCTGSSNDIGRYKYVSWFQHHPGRAPKLIIYEVNNRPSGLSHRFSGSKSGNTASLTISGLQAEDEADYYCCSYTSSLTYVFGTGTAVTVL
In the case of B8, in [7], the binding result was “binds”.

B9: TSTO1008 (antibody, V domains shown)
VH: AVQLVQSGAEVKKPGESLRISCKGSGYSFSTYWIIWVRQMPGKGLEWIGRFDPSDSYNVNSPSFQGHVTISADTSINTAYLQWSSLKASDSAMYYCARRSDKAVPGTFDQWGQGTLVTVSS
VL: RSVLTQPPSVSAAPGQKVIISCSGSSSNIGNNYVSWYQQFLGTAPKLLIYDTDKRPSGIPDRFSGSKSGTSATLGITGLQTGDEAHYYCATWDSSLRAGPVVFGGGTKLTVLG
With B9, the binding result in [8] is “binds”.

B10: TSTO1010 (antibody, V domains shown)
VH: EVQLVESGGGLVKPRGSLRLSCAASGFTFSAYGMNWVRQAPGKGLEWVSSISGDSRDIYYGASMKGRFTISRDNAKSSLYLQMNSLRAEDTAVYYCARGEGGELWAFDYWGLGVLVTVSS
VL: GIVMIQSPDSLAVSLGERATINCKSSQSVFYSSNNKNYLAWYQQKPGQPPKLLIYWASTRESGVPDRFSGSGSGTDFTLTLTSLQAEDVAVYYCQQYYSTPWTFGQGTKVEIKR
With B10, the binding result in [9] was “binds”.
